Source: the supplement of paper PMC9170038

Tested on: K4 kissing-loop RNA reporter
Test: apparent KD of K4 kissing-loop reporter; higher = weaker reporter binding
Details: Eterna round: R107; input ligand: arginine 13.2 mM
Experimental: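 RNA-MaP round R107: designed RNA switches with theophylline, tryptophan, arginine or FMN aptamers are transcribed on-chip within common flanks. They are titrated with a labelled K4 kissing-loop RNA reporter in RNA-MaP buffer (100 mM Tris pH 7.5, 80 mM KCl, 4 mM MgCl2), without ligand or with the indicated ligand. Median apparent KD per design.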
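Further: bound reporter read as fluorescence of individual clusters on recovered sequencing chips by microscopy, with normalized cluster intensities fitted with a binding model.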

Sequence | apparent KD of K4 kissing-loop reporter [nM]
UGUCAUGGAAACAUGAACGUUGAUGUUCGACGAGGACCGGUACGGCCGCCACUCGAGUAAUAGUCAGUGAUGUUGACUUGUCUAA [KL-SSTryp-A form1 sub3] | 107
GGAGAGAACUGAAGGAGCGCCAAGAGAGAAGGAAAUAUAGUGAUGUUAUAUAAGAGAGAGAGGCAGGUAGGUCGCAGAGGGAGGA [#03 K4 Arginine B Exclusion] | 162
UGUCAUUGGUCGGCCGCCACUUCGUGUAGAGUGAUGUUUUGUAGGACGGAUCGAAAGAUCUGUCGAAGGACCGGGACCGAUGACU [FiskerMod 18 - Jieux - Same State - Tryptophan B] | 189
UGUGCCAACAGUGAUACCAGCGUGGAGUGAUGUUCCGAGGAUCGGAGUGAUGUUCCGAAGCGCCCUUGGCAGCGCAGAAGCGCGA [Exclusion Theophylline B GF 26] | 156
ACCUACCAUUAGUGAUGUUAAUGGACGGAAGGAGCGCAGAUAUCUGCAGGUAGGUCGCCGAAGGCUAGACAUUGUCUAGCCAUUU [AK1.3 SS Arginine A] | 161
UCCUGCAAUCUACCACGAAAGUGGAUGGAUACCAGAGUCGAAAGACUCCCUUGGCAGCCAGUGAUGUUGGAGCAGGUAAAAUAAA | 462
GAGUGGCAGACGGCCGCCACUCUUAGCAGCCAGCGGAGUGAUGUUCCGCCCGAGUGAUGUUCGGAGAGGACCGGGUUUGUUGUAA [Exclusion Tryptophan B GF 29] | 146
UGUUUUUACUGAAGGAGCGGCAAUUGAUACGUAGAUAUAGUGAUGUUAUAUAAGAUAGAGAGCCAGGUAGGUCGCAGAAUGAAUC [ExArgB.aD] | 188
CAUAGACAAGUGAUGUUUGUCAUAACCGAAGGAGCGUCUUUAAAGACAGGUAGGUCGCGGAUUAGUUAAGUUAUGAUUCUUUAUG [#19 K4 Arginine A Same State] | 492
GCAGUGAUGUUGCGCAUGUACAGUGGAGUGCGAGGACCGGUACGGCCGCCACUCGUACAGAACAAGCUAAUAUAUGGAUAGGUGA [IX] | 525
ACGGGCGGCUGAAGGAGCGGGCGGGCCCGAGUGAUGUUCGGGUGGGCCGUGAGGUCCGGAGCCCAGGUAGGUCGCGGUUCCGCCU [#2 Same State - Arginine B Attempt #14 (HarryS)] | 119
GUCAUCAGAUCGCAAGAUCUGAUAGCCGAUACCAGCGCGAAGGUGCGCCCUUGGCAGCGGCACCGAGUGAUGUUCGGUCAGACGA [#2 Same State - Theophylline A Attempt #5 (HarryS)] | 392
CUAUGGAAACAUAGGAGUCGGGAAACCGAUACCAGUAUGGAAACAUACCCUUGGCAGCGGAAUGAUUCAACGGAGUGAUGUUCCG [Theophylline A K4 19] | 366
AAUACAGUACAACCGAGUGGAACACAAAUACGAGGACCGGUACGGCCGCCACUCGUGCAGAAUUUCAGUGAUGUUGAAAUACUGC [Exclusion Tryptophan A GF 6] | 125
AGUUCCUCUGUCGAUACCAGCUUCAGUUGGCGGCCAGUGAUGUUGGUAUCGCCGAUGCCAAGCCCUUGGCAGCGACAUGAGACCC [Lausso] | 187
UUUUAAAUAUCUGAUACCAGAGAAAAUAUAUGUAGUGAUGUUAUAUACAAAAUAAUUAAGCUCCCUUGGCAGCAGUAUUAAUUUU [AstrosExc-TheB#3] | 658
GUAGACGUACCUUCAGUGAUGUUGAAGGAUACCAGAUGUUACCACAUCCCUUGGCAGCCUUGGGAUAACAGUGAGUCGGAAUAUG [Uslediti] | 136

Sequence | apparent KD of K4 kissing-loop reporter [nM]
UGUACCGAGUCAGGAUAUCAACGACUGACAAAAGUCGGUCGAAUAUCCAGUGAUGUUGGAAAUAAAUGAGAAGGGACUUGGUACU [FmnBS 14 #SwitchBubble #StaticStem] | 258
GCGGGCCAGACGGCCGCCACUCCGGGCAGUGAUGUUGCGAAAAUUCUACUAGAGUGAUGUUCUACGAGGACCGGGUCGGAACGCG [Exclusion Tryptophan B Gf 12] | 476
GCGGACAUUCGCAGUGAUGUUGCGACGGAAGGAGCGCGUGAAAACGCAGGUAGGUCGCCGACAAAAUUAAUUUUAAUGUGUUCGC [Arginine A K4 30] | 387
UGUGUUGUUUUGAUGUUUGGUGUAAGUUGGCAGGAUAUCGUAGAGGCGAGAAGGGCUUUUAUGCGUUAUGAGUGAUGUUUGUAGG [zrrzmullin] | 330
AGGCCCGGCCGAAAGGCCGGGCCAAGAGAUACCAGCAGCGAAAGCUGCCCUUGGCAGCUCACUUAGUGAUGUUAAGAGAUAAAUG [SS Theo A Tesla 1.2] | 353
AGUGCACUGUCAGGAUAUAUACAGUGAUGUUGUGUAUGUCAGCAAGUCAAAGACUUGCUGUUCUGUGUAGAAGGGACUGUGUACA [Omei KL FMN B Exc A v3] | 457
UCUGCAAAGUCGGCCGCCACUCCGGGCCCUAUAAAUGGGCGCAGUGAUGUUGCGGCUAGGCCUCUGAGGACCGGGACUUUAUAGA [Anarisgema] | 45.8
GGGAAGUACGGAGGAUAUGCACUGAGGAGGAGAAUAUAGUGAUGUUAUAUAAGAGGAAGGAGAAGAGUAGAAGGCCGUGGAAAGG [SSFMNB.C] | 115
AUUCAUUUCAGAGGAUAUCGCUGGAGAGUGAUGUUCUCCCAUAGUCAGUGAUGUUGGCUAGCUAUGCGAGAAGGCUGUGGGUGGA [Same State FMN B GF 28] | 396
GCUCGGGAGUGAUGUUCCAAGUGGUGUUAACGAGGACCGGUACGGCCGCCACUCGAUACGGCCGGGCCGUAGGAUAAACUGGAGC [Same State - Tryptophan A (Freestyle 13)] | 123
AGAGUUAUGCGAGGAUAUGCGGUUAGUACUCAAAGAGUACUAACAGCAGAGUGAUGUUCUGUGAAAGCAGAAGGUGCAUAACUCA [Omei KL FMN B SS B v10] | 1060
CUAAUCGCUCAUGAUACCAGCUAGUGAUGUUAGCCCGUCAAGCUGAGGGUUCAUCCACCCAGCCCUUGGCAGCAUUCUCGGUCAG [theeternabot_exclusion_KL_Theo_B_8] | 313
GCCUAGCAGGGAAGGAGCGGCAUAAGCAUAGAUAAUAUGCAGUUAGUGAUGUUAAUACUAUGCCAGGUAGGUCGCCCUGCUAGGC [KL-SSArg B7] | 457
AGACUACUGAUAGGAUAUAACAUACUAACUCGUAUACCAAAGGUAUACGAGACCCUUCUAGUGAUGUUAGAAGGGUCGGUAGUCA [Omei KL FMN B Exc B v6] | 74
CGAUACGGAAAUACGUGUCUCUAUUCAGAAGGAGCGUGGUAGUACACAGGUAGGUCGCUGAAAUUUAAACUAGUGAUGUUAGACU [JR_SSArginiA_Sub004] | 742
CGAGUGAUGUUCGUUUUUUACUCUGUUUGACAGGAUAUGCGGAAACGCAGAAGGGUCACCUUUGAGUUAAACGGAGUUAUUUUUU [Ex FMN A 20] | 296

Same assay, conditions: Eterna round: R107; input ligand: none

Sequence | apparent KD of K4 kissing-loop reporter [nM]
UGUCAUUGGUCGGCCGCCACUUCAAAAGGUCAAAGACCAGAGUGAUGUUCUUCACGAAACGUGAGAAGGACCGGGACCGAUGACU [TrypBS 12 #SwitchBubble #K4Middle] | 191
UGAUAGGACAGAAGGAGCGGAAGUGAUGUUUCCAAAAGGGAAGGUCGACAAAGUCGACCCUUCCAGGUAGGUCGCUGUCCUAUCU [ArgBX 9 #Palindromic #SwitchBubble #StaticStem] | 73.9
UGGAGUUGACGAAAAGUCAACUCCUGGGAAGGAGCGGACGAAAGUCCAGGUAGGUCGCUCACUACCAGUGAUGUUGGUACUAAAA | 296
UAUUUAUUAACUGAUACCAGACUUAAUGAAUUGUAAAUUACUAGUGAUGUUAGUGAAUCUGUCCCUUGGCAGCAGUAUUUAUUAA [JR_Nu_ExcTheophyB_Sub028] | 128
CCCGUGGGUUCGAGAGGGCUUGUGGGAAGUAAGGAUAUUUAGGGAGAAAGAAGGUACUAUAGAAUAUAGUGAUGUUAUAUAUGGG [#07 K4 FMN A Same State] | 454
UUGGAGUGAUGUUCCAUAUCUUGAGCGGAAGGAGCGGCAAAAGUGCCAGGUAGGUCGCCGCAGAAGGUACCAGUGAUGUUGGAAA [Same State Arginine A GF 3] | 155
UUUUAGGUAUCUGAUACCAGAGAAAAUAUAUGUAGUGAUGUUAUAUACAAAAUAAUUAAGCUCCCUUGGCAGCAGUUUUAAUUUU [AstrosExc-TheB#5] | 902
AGUGUUAGGUUAGAUACCAGCCGUUCGUGAAUAAUCCUCGAACCGCCAGUGAUGUUGGCAGGCCCUUGGCAGCUAACAGAACAGA [Maxeusla] | 207
UGAUUGCCAGUGAUGUUGGCAGUGACUGAAGGAGCGCGUGAAAACGCAGGUAGGUCGCAGUUGAGUGCCAAUUGAUCGAAAGAUC [KL-XArg-A5] | 244
UAUAUAUGAUGUGAUACCAGUGAAAAGCCAGUGAUGUUGGAAGAACUGGUAUAUAAAUAACACCCUUGGCAGCACAAUCACGUAU [theophylline b exclusion] | 266
UGUCAUGGAAACAUGAACGUUGAUGUUCGACGAGGACCGGUACGGCCGCCACUCGAGUAAUAGUCAGUGAUGUUGACUUGUCUAA [KL-SSTryp-A form1 sub3] | 91.8
GGAGAGAACUGAAGGAGCGCCAAGAGAGAAGGAAAUAUAGUGAUGUUAUAUAAGAGAGAGAGGCAGGUAGGUCGCAGAGGGAGGA [#03 K4 Arginine B Exclusion] | 127
UGUCAUUGGUCGGCCGCCACUUCGUGUAGAGUGAUGUUUUGUAGGACGGAUCGAAAGAUCUGUCGAAGGACCGGGACCGAUGACU [FiskerMod 18 - Jieux - Same State - Tryptophan B] | 459
UGUGCCAACAGUGAUACCAGCGUGGAGUGAUGUUCCGAGGAUCGGAGUGAUGUUCCGAAGCGCCCUUGGCAGCGCAGAAGCGCGA [Exclusion Theophylline B GF 26] | 186
ACCUACCAUUAGUGAUGUUAAUGGACGGAAGGAGCGCAGAUAUCUGCAGGUAGGUCGCCGAAGGCUAGACAUUGUCUAGCCAUUU [AK1.3 SS Arginine A] | 217
UCCUGCAAUCUACCACGAAAGUGGAUGGAUACCAGAGUCGAAAGACUCCCUUGGCAGCCAGUGAUGUUGGAGCAGGUAAAAUAAA | 638
GAGUGGCAGACGGCCGCCACUCUUAGCAGCCAGCGGAGUGAUGUUCCGCCCGAGUGAUGUUCGGAGAGGACCGGGUUUGUUGUAA [Exclusion Tryptophan B GF 29] | 146
UGUUUUUACUGAAGGAGCGGCAAUUGAUACGUAGAUAUAGUGAUGUUAUAUAAGAUAGAGAGCCAGGUAGGUCGCAGAAUGAAUC [ExArgB.aD] | 190
CAUAGACAAGUGAUGUUUGUCAUAACCGAAGGAGCGUCUUUAAAGACAGGUAGGUCGCGGAUUAGUUAAGUUAUGAUUCUUUAUG [#19 K4 Arginine A Same State] | 704
GCAGUGAUGUUGCGCAUGUACAGUGGAGUGCGAGGACCGGUACGGCCGCCACUCGUACAGAACAAGCUAAUAUAUGGAUAGGUGA [IX] | 543
ACGGGCGGCUGAAGGAGCGGGCGGGCCCGAGUGAUGUUCGGGUGGGCCGUGAGGUCCGGAGCCCAGGUAGGUCGCGGUUCCGCCU [#2 Same State - Arginine B Attempt #14 (HarryS)] | 152
